Data taken from paper doi:10.1101/2024.11.06.622243.

Biological target: T1, HA-Halo-MRAP2 (human), Q96G30
T1 chain: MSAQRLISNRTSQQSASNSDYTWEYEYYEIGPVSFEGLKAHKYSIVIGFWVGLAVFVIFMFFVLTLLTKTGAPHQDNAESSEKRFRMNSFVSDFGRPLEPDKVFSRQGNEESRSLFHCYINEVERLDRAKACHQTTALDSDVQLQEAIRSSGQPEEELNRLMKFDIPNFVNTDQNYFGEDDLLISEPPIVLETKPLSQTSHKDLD
Assay: single-molecule pull-down (SiMPull); one-colour SiMPull with photobleaching step analysis: HA-Halo-tagged protein labelled on HEK293 cells with membrane-impermeable CA-Sulfo646, lysed in 0.5% LMNG/0.05% CHS, immobilised by biotinylated anti-HA antibody on a PEG-passivated slide, TIRF imaging
Details: remark: other sources report otherwise

percent of molecules with one bleaching step: 68% | percent of molecules with three or four bleaching steps: < 5% | percent of molecules with two bleaching steps: 28%
B1: HA-Halo-MRAP2, Q96G30 1-205 (natural protein)
chain: T1 chain
modifications: here or on the partner: CA-Sulfo646 dye on the Halo tag; CA-Sulfo646 dye on the Halo tag
